Source: publication doi:10.1101/2022.07.07.499247
Read-outs that look alike come from different tables or passages of the source.

Assays:
[1] = biological target: recombinant alpha tubulin of Plasmodium falciparum (Plasmodium falciparum); assay: MST
[2] = biological target: recombinant alpha tubulin of Plasmodium falciparum (Plasmodium falciparum); assay: MST; remark: listed apart in the source

B1: recombinant Plasmodium falciparum cold shock protein PfCoSP (PF3D7_0109600) (natural protein)
chain: MLRRKIHIHFNSYKKHFFSQLINKEKHDKITGNVIMFDKRKGYGFIKPNDGGPDIFVHYTDICQSRTFEVTNEEKKKLAWNANMDITQKKEEYNFEYDNNNNNNNNKHNKKKEEIKKEFKYLVPGERVKFSVIYDEKSNSSKAINVDYID
- Kd [1]: 274 nM
- Kd [2]: 210 nM
